Measurements published in US20240158512A1 (TRUEBINDING, published 2024).
Values joined by “and” are separate entries in the source; they are usually repeats but may differ in a detail not shown here. Equal entries are not always repeated. Each block holds one binder with its values, some of them ahead of it.

What was measured:
Galectin-3 [1] = target: T1, Galectin-3 (UniProt P17931 1-250, limits assumed); test: BLI; after -80 C for 9 months
T1 construct: Target of the anti-Gal3 antibody TB006; also called Gal3; GAL3
T1 sequence (P17931 whole entry): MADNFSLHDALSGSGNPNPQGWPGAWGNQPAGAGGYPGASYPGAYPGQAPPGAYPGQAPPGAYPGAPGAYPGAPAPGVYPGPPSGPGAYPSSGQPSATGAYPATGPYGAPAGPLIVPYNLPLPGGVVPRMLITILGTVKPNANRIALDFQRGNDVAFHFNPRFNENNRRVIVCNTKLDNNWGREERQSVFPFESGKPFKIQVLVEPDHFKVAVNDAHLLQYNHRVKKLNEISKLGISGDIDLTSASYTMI

Galectin-3 [2] = target: T1, Galectin-3; test: BLI; after 4 C for 6 months
Galectin-3 [3] = target: T1, Galectin-3; test: BLI; after agitation (shear stress)
Galectin-3 [4] = target: T1, Galectin-3; test: ELISA blocking assay; TB006 diluted to 0.31 mg/mL in 0.9% NaCl, 25 C, 4 h; blocked partner not named
Galectin-3 [5] = target: T1, Galectin-3; test: ELISA blocking assay; TB006 diluted to 0.31 mg/mL in 0.9% NaCl, 25 C, 0 h; blocked partner not named
Galectin-3 [6] = target: T1, Galectin-3; test: BLI; after -80 C for 12 months
Galectin-3 [7] = target: T1, Galectin-3; test: ELISA (Biological Activity); accelerated stability 25 C/60% RH, 3 months
Galectin-3 [8] = target: T1, Galectin-3; test: ELISA (Biological Activity); accelerated stability 25 C/60% RH, 0 months
Galectin-3 [9] = target: T1, Galectin-3; test: BLI; after 4 C for 18 months
Galectin-3 [10] = target: T1, Galectin-3; test: BLI; after 3 freeze/thaws, 25% vol. of container
Galectin-3 [11] = target: T1, Galectin-3; test: BLI (Binding Activity); long-term stability 5 C, 3 months
Galectin-3 [12] = target: T1, Galectin-3; test: BLI; after 40 C for 28 days
Galectin-3 [13] = target: T1, Galectin-3; test: BLI; after pipetting (shear stress)
Galectin-3 [14] = target: T1, Galectin-3; test: ELISA blocking assay; TB006 diluted to 0.31 mg/mL in 0.9% NaCl, 25 C, 0 h; blocked partner not named; Bag #1, 0 h
Galectin-3 (Gal3) [15] = target: T2, Galectin-3 (Gal3) (UniProt P17931 1-250, limits assumed); test: BLI; 50 mg/mL DS after 25 C for 1 month
T2 construct: Target of TB006
T2 sequence (P17931 whole entry): as above

Galectin-3 (Gal3) [16] = target: T2, Galectin-3 (Gal3); test: BLI; 50 mg/mL DS after 25 C for 3 months
Galectin-3 (Gal3) [17] = target: T2, Galectin-3 (Gal3); test: BLI; 20 mg/mL DS after -80 C for 9 months
Galectin-3 (Gal3) [18] = target: T2, Galectin-3 (Gal3); test: BLI; 50 mg/mL DS after -80 C for 6 months
Galectin-3 (Gal3) [19] = target: T2, Galectin-3 (Gal3); test: BLI; 20 mg/mL DS, time 0 control
Procedure, shortened: (§1)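 Galectin-3 binding is reported as the dissociation constant (Kd), measured by biolayer interferometry. Samples were collected at time zero or after agitation, repeated freeze-thaw cycles, or storage at set temperatures, including 40° C and cryogenic storage.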

Galectin-3 (Gal3) [20] = target: T2, Galectin-3 (Gal3); test: BLI; 20 mg/mL DS after -80 C for 3 months
Galectin-3 (Gal3) [21] = target: T2, Galectin-3 (Gal3); test: BLI; 50 mg/mL DS, time 0 control
Galectin-3 (Gal3) [22] = target: T2, Galectin-3 (Gal3); test: BLI; 20 mg/mL DS after 25 C for 6 months
Procedure, shortened: as §1

Galectin-3 (Gal3) [23] = target: T2, Galectin-3 (Gal3); test: BLI; 20 mg/mL DS after -80 C for 12 months
Procedure, shortened: as §1

Galectin-3 (Gal3) [24] = target: T2, Galectin-3 (Gal3); test: BLI; 20 mg/mL DS after 40 C for 21 days
Procedure, shortened: as §1

Galectin-3 (Gal3) [25] = target: T2, Galectin-3 (Gal3); test: BLI; 20 mg/mL DS after -80 C for 6 months
Procedure, shortened: as §1

Galectin-3 (Gal3) [26] = target: T2, Galectin-3 (Gal3); test: BLI; 50 mg/mL DS after 4 C for 12 months
Galectin-3 (Gal3) [27] = target: T2, Galectin-3 (Gal3); test: BLI; 20 mg/mL DS after agitation for 3 days
Procedure, shortened: as §1

Galectin-3 (Gal3) [28] = target: T2, Galectin-3 (Gal3); test: BLI; 20 mg/mL DS after agitation for 1 day
Procedure, shortened: as §1

Galectin-3 (Gal3) [29] = target: T2, Galectin-3 (Gal3); test: BLI; 20 mg/mL DS after -80 C for 18 months
Procedure, shortened: as §1

Galectin-3 (Gal3) [30] = target: T2, Galectin-3 (Gal3); test: BLI; 50 mg/mL DS after 4 C for 9 months
Galectin-3 (Gal3) [31] = target: T2, Galectin-3 (Gal3); test: BLI; 20 mg/mL DS after 3 freeze/thaws
Procedure, shortened: as §1

Kd (Galectin-3 [1]): 2 nM
Kd (Galectin-3 [2]): 2.3 nM
Kd (Galectin-3 [3]): 2.8 nM
IC50 (Galectin-3 [4]): 1.35 µg/mL and 1.41 µg/mL
IC50 (Galectin-3 [5]): 1.05 µg/mL
Kd (Galectin-3 [6]): 3 nM
IC50 (Galectin-3 [7]): 1.5 µg/mL
IC50 (Galectin-3 [8]): 2.5 µg/mL
Kd (Galectin-3 [9]): 2.1 nM
Kd (Galectin-3 [10]): 2.8 nM
Kd (Galectin-3 [11]): 3 nM
Kd (Galectin-3 [12]): 3.1 nM
Kd (Galectin-3 [13]): 2.8 nM
IC50 (Galectin-3 [14]): 1.01 µg/mL
B1: TB006 (antibody, human IgG4 S228P, kappa, V domains shown)
VH: QVQLVQSGAEVKKPGASVKVSCKASGYSFTNYYMHWVRQAPGQRLEWMGWIYPGSGNTNYNEKFQGRVTITADTSASTAYMELSSLRSEDTAVYYCSTAPGGFDVWGQGTTVTVSS
VL: DIVMTQTPLSLSVTPGQPASISCKSSKSLLHSDGITYLYWYLQKPGQSPQLLIYRMSNLASGVPDRFSGSGSGTDFTLKISRVEAEDVGVYYCAQMLEFPLTFGQGTKLEIKR
notes: Tested as formulated drug substance or drug product in 20 mM L-histidine, 5 mM methionine, 100 mM NaCl, 0.02% polysorbate 80, pH 5.8, or diluted in 0.9% saline; also called 4A11.H3L1; IMT006a

Kd (Galectin-3 (Gal3) [15]): 2.2 nM
Kd (Galectin-3 (Gal3) [16]): 2.5 nM
Kd (Galectin-3 (Gal3) [17]): 1.7 nM
Kd (Galectin-3 (Gal3) [18]): 1.8 nM
Kd (Galectin-3 (Gal3) [19]): 2.9 nM
Kd (Galectin-3 (Gal3) [20]): 3.5 nM
Kd (Galectin-3 (Gal3) [21]): 2.6 nM
Kd (Galectin-3 (Gal3) [22]): 3.4 nM
Kd (Galectin-3 (Gal3) [23]): 2.7 nM
Kd (Galectin-3 (Gal3) [24]): 2.6 nM
Kd (Galectin-3 (Gal3) [25]): 2.7 nM
Kd (Galectin-3 (Gal3) [26]): 3.7 nM
Kd (Galectin-3 (Gal3) [27]): 3.4 nM
Kd (Galectin-3 (Gal3) [28]): 3.1 nM
Kd (Galectin-3 (Gal3) [29]): 4.2 nM
Kd (Galectin-3 (Gal3) [30]): 2.8 nM
Kd (Galectin-3 (Gal3) [31]): 3.3 nM
B2: TB006 (antibody, human IgG4 S228P, kappa, V domains shown)
VH: QVQLVQSGAEVKKPGASVKVSCKASGYSFTNYYMHWVRQAPGQRLEWMGWIYPGSGNTNYNEKFQGRVTITADTSASTAYMELSSLRSEDTAVYYCSTAPGGFDVWGQGTTVTVSS
VL: DIVMTQTPLSLSVTPGQPASISCKSSKSLLHSDGITYLYWYLQKPGQSPQLLIYRMSNLASGVPDRFSGSGSGTDFTLKISRVEAEDVGVYYCAQMLEFPLTFGQGTKLEIKR
notes: Full antibody tested as drug substance (DS) in 20 mM L-histidine, 5 mM methionine, 100 mM NaCl, 0.02% polysorbate-80, pH 5.8; also called 4A11.H3L1; IMT006a
